The values that follow come from patent EP4039268A1 (IMBA-Institut für Molekulare Biotechnologie GmbH, dated 2022).

For test [1], the target named is T1, human recombinant soluble ACE2 (human, UniProt Q9BYF1 18-740).
T1 construct: also called hrsACE2
Description: ELISA.

For test [2], the target named is T2, monomeric SARS-CoV-2 receptor binding domain (RBD-H6) (SARS-CoV-2, UniProt P0DTC2 319-541).
T2 construct: Made in HEK293-6E cells; also called RBD Spike; monomeric RBD
Nature of the test: ELISA screen. On the technique in general: ELISA stands for enzyme-linked immunosorbent assay.

In test [3] the target is T1, human recombinant soluble ACE2. Description: ELISA screen.
The target of test [4] is T3, full-length trimeric SARS-CoV-2 Spike protein (Spike-H6) (SARS-CoV-2, N-glycosylated (22 N-glycosylation sites)).
T3 construct: also called trimeric Spike; full-length Spike-H6
Description: ELISA screen.

T1 sequence (Q9BYF1 18-740 limits assumed): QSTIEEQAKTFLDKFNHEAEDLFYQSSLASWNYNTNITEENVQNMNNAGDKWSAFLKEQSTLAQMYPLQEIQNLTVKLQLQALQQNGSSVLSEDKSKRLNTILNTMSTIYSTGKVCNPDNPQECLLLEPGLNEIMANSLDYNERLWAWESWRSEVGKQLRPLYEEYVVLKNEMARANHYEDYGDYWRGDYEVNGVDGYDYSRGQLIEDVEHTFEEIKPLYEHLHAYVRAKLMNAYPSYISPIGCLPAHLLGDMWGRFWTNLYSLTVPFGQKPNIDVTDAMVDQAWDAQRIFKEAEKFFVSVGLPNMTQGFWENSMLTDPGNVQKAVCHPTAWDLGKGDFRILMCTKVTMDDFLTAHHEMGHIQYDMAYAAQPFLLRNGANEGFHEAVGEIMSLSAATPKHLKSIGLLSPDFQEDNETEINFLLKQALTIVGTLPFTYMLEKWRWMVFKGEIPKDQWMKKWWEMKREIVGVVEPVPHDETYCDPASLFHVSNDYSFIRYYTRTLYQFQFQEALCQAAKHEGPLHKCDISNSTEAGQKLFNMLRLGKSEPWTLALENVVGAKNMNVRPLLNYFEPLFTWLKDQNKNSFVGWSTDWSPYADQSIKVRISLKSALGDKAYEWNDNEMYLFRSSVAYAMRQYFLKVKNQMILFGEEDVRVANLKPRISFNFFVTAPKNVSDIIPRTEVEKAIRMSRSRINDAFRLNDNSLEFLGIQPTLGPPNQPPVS

B1: Clec3a CRD-mouse IgG2a-Fc fusion protein (Fc fusion)
chain: VHKKCYLASEGLKHYHEANEDCISKGGTLVVPRNSDEINALRDYGKRSLPGVNDFWLGINDMVTEGKFLDVHGFAVSFLNWDRAQPSGGKRENCVLFSQSAQGKWSDEACRSSKRYICEGGGSGGGSGGGS
Turning to B1, the binding result in test [1] was “no binding (tested: 10 µg/ml)”. Also, the “Mean normalized OD” value turned out to be 0.039 OD in test [2], 0.045 OD in test [3] and 0.098 OD in test [4].

B2: Sftpa1 CRD-mouse IgG2a-Fc fusion protein (Fc fusion)
chain: not shown
Turning to B2, the “Mean normalized OD” value in test [2] was 0.002 OD; in test [3], -0.092 OD; in test [4], 0.005 OD.

B3: Clec18a CRD-mouse IgG2a-Fc fusion protein (Fc fusion)
chain: IDGDCFMVSPEADTYYGAKMKCQGKGGVLAQIESQKVQDILAFYLGRLETTNEVTDSDFETKNFWIGLTYKAAKDSFRWTTGEHQSFTSFAFGQPDNQGFGNCVEMQASAAFNWNDQRCKTRNRYICQGGGSGGGSGGGS
As for B3, the “Mean normalized OD” value is 0 OD in test [2], -0.013 OD in test [3] and 0.022 OD in test [4].

B4: Chodl CRD-mouse IgG2a-Fc fusion protein (Fc fusion)
chain: VKHPCYKMAYFHELSSRVSFQEARLACESEGGVLLSLENEAEQKLIESMLQNLTKPGTGISDGDFWIGLLRSGDGQTSGACPDLYQWSDGSSSQFRNWYTDEPSCGSEKCVVMYHQPTANPGLGGPYLYQWNDDRCNMKHNYICKGGGSGGGSGGGS
Turning to B4, the “Mean normalized OD” value is 0.001 OD in test [2], -0.001 OD in test [3] and 0.002 OD in test [4].

B5: Clec2d CRD-mouse IgG2a-Fc fusion protein (Fc fusion)
chain: VENKCFYFSEYPSNWTFAQAFCMAQEAQLARFDNQDELNFLMRYKANFDSWIGLHRESSEHPWKWTDNTEYNNTIPIRGEERFAYLNNNGISSTRIYSLRMWICSKLNSYSLHCQTGGGSGGGSGGGS
As to B5, the figures for the “Mean normalized OD” value in test [2], in test [3] and in test [4] were 0.024 OD, -0.506 OD and -0.106 OD, respectively.

B6: Asgr1 CRD-mouse IgG2a-Fc fusion protein (Fc fusion)
chain: YEGSCYWFSSSVRPWTEADKYCQLENAHLVVVTSRDEQNFLQRHMGPLNTWIGLTDQNGPWKWVDGTDYETGFQNWRPEQPDNWYGHGLGGGEDCAHFTTDGRWNDDVCRRPYRWVCEGGGSGGGSGGGS
On to B6, for which the binding result in test [1] is listed as “no binding (tested: 10 µg/ml)”. The “Mean normalized OD” value in test [3] was 0.004 OD; in test [4], 0.121 OD.

B7: Atrn CRD-mouse IgG2a-Fc fusion protein (Fc fusion)
chain: VGNSCLKITTAKENYDNAKLSCRNHNAFLASLTSQKKVEFVLKQLRLMQSSQSMSKLTLTPWVGLRKINVSYWCWEDMSPFTNSLLQWMPSEPSDAGFCGILSEPSTRGLKAATCINPLNGSVCEGGGSGGGSGGGS
With B7, in test [1], the binding result is recorded as “no binding (tested: 10 µg/ml)”. The entries for the “Mean normalized OD” value in test [2], in test [3] and in test [4] were 0.001 OD, 0.002 OD and 0.002 OD, respectively.

B8: Clec1a CRD-mouse IgG2a-Fc fusion protein (Fc fusion)
chain: YGDKCYQFYKESKNWQSCEYFCLADNATMLKISTQEELDFAMPQSYSEFFYSYWTGLSRNGSGKAWLWTDGTPYSFELFEIIIDPTNLRNRDCMTIFNGKAYSKDCKELRRCACEGGGSGGGSGGGS
As to B8, the “Mean normalized OD” value in test [2] is 0.01 OD; in test [3], -0.006 OD; in test [4] it was -0.005 OD.

B9: Siglec12 CRD-mouse IgG2a-Fc fusion protein (Fc fusion)
chain: PQEVFTLNVERKVVVQEGLCVLVPCNFSYLKKRLTDWTDSDPVHGFWYREGTDRRKDSIVATNNPIRKAVKETRNRFFLLGDPWRNDCSLNIREIRKKDAGLYFFRLERGKTKYNYMWDKMGGGSGGGSGGGS
Regarding B9, the “Mean normalized OD” value in test [2] was -0.021 OD; in test [3], -0.105 OD; in test [4], 0.046 OD.

B10: Acan CRD-mouse IgG2a-Fc fusion protein (Fc fusion)
chain: not shown
As to B10, the binding result in test [1] was “no binding (tested: 10 µg/ml)”. The “Mean normalized OD” value in test [2] came out at 0.035 OD; in test [3], 0.081 OD; in test [4] it was 0.023 OD.

B11: Reg2 CRD-mouse IgG2a-Fc fusion protein (Fc fusion)
chain: INCPEGANAYGSYCYYLIEDRLTWGEADLFCQNMNAGHLVSILSQAESNFVASLVKESGTTASNVWTGLHDPKSNRRWHWSSGSLFLFKSWATGAPSTANRGYCVSLTSNTAYKKWKDENCEAQYSFVCKFGGGSGGGSGGGS
As for B11, the “Mean normalized OD” value in test [2] was 0.026 OD; in test [3] it was -0.042 OD; in test [4], 0.056 OD.

B12: Lgals4_1 CRD-mouse IgG2a-Fc fusion protein (Fc fusion)
chain: YKRPIPGGLSVGMSVYIQGMAKENMRRFHVNFAVGQDDGADVAFHFNPRFDGWDKVVFNTMQSGQWGKEEKKKSMPFQKGKHFELVFMVMPEHYKVVVNGNSFYEYGHRLPVQMVTHLQVDGDLELQSINFLGGGSGGGSGGGS
Turning to B12, the binding result in test [1] is “no binding (tested: 10 µg/ml)”. Moreover, the “Mean normalized OD” value turned out to be 0.2 OD in test [3] and 0.152 OD in test [4].

B13: Reg3a CRD-mouse IgG2a-Fc fusion protein (Fc fusion)
chain: YRSHCYALVMTPKSWFQADLVCQKRPSGHLVSILSGGEASFVSSLVNGRVDNYQDIWIGLHDPTMGQQPNGGGWEWSNSDVLNYLNWDGDPSSTVNRGHCGSLTASSGFLKWGDYYCDGTLPFVCKGGGSGGGSGGGS
Regarding B13, the “Mean normalized OD” value is 0.039 OD in test [2], -0.132 OD in test [3] and 0.006 OD in test [4].

B14: Reg1 CRD-mouse IgG2a-Fc fusion protein (Fc fusion)
chain: ISCPEGSNAYSSYCYYFTEDRLTWADADLFCQNMNSGYLVSVLSQAEGNFVASLIKESGTTDANVWTGLHDPKRNRRWHWSSGSLFLYKSWATGSPNSSNRGYCVSLTSNTGYKKWKDDNCDAQYSFVCKFGGGSGGGSGGGS
For the molecule B14, the results for the “Mean normalized OD” value in test [2], in test [3] and in test [4] were 0.009 OD, -0.073 OD and 1.55 OD, respectively.

B15: Reg3g CRD-mouse IgG2a-Fc fusion protein (Fc fusion)
chain: YGSYCYALFSVSKNWYDADMACQKRPSGHLVSVLSGAEASFLSSMIKSSGNSGQYVWIGLHDPTLGYEPNRGGWEWSNADVMNYINWETNPSSSSGNHCGTLSRASGFLKWRENYCNLELPYVCKGGGSGGGSGGGS
With B15, the “Mean normalized OD” value is 0.017 OD in test [2], -0.014 OD in test [3] and -0.009 OD in test [4].

B16: Cd302 CRD-mouse IgG2a-Fc fusion protein (Fc fusion)
chain: FQGSCYAFLQVTINVENIEDVRKQCTDHGADMVSIHNEEENAFILDTLQKRWKGPDDLLLGMFYDTDDATFKWYDHSNMTFDKWADQDGEDLVDTCGFLYTKTGEWRKGDCEISSVEGTLGGGSGGGSGGGS
For the molecule B16, the “Mean normalized OD” value in test [2] was 0.001 OD; in test [3], -0.002 OD; in test [4], -0.002 OD.

B17: Clec2l CRD-mouse IgG2a-Fc fusion protein (Fc fusion)
chain: YGRKCYYFSEEPRDWNTGRQYCHTHEAALAVIQSQKELEFMFKFTRREPWIGLRRVGDDFHWVNGDPFDPDTFTISGMGECVFVEPTRLVSTECLTTRPWVCSGGGSGGGSGGGS
As to B17, the binding result in test [1] is listed as “no binding (tested: 10 µg/ml)”. Also, the “Mean normalized OD” value was 0 OD in test [2], 0 OD in test [3] and -0.001 OD in test [4].

B18: Sell CRD-mouse IgG2a-Fc fusion protein (Fc fusion)
chain: WTYHYSEKPMNWENARKFCKQNYTDLVAIQNKREIEYLENTLPKSPYYYWIGIRKIGKMWTWVGTNKTLTKEAENWGAGEPNNKKSKEDCVEIYIKRERDSGKWNDDACHKRKAALCGGGSGGGSGGGS
In the case of B18, the “Mean normalized OD” value in test [2] is -0.041 OD; in test [3], -0.23 OD; in test [4], -0.016 OD.

B19: Olr1 CRD-mouse IgG2a-Fc fusion protein (Fc fusion)
chain: HKENCYLFHGPFSWEKNRQTCQSLGGQLLQINGADDLTFILQAISHTTSPFWIGLHRKKPGQPWLWENGTPLNFQFFKTRGVSLQLYSSGNCAYLQDGAVFAENCILIAFSICQGGGSGGGSGGGS
Regarding B19, the binding result in test [1] is listed as “no binding (tested: 10 µg/ml)”. Moreover, the “Mean normalized OD” value in test [3] amounted to 0.116 OD; in test [4], 0.083 OD.

B20: Siglec1 CRD-mouse IgG2a-Fc fusion protein (Fc fusion)
chain: TWGVSSPKNVQGLSGSCLLIPCIFSYPADVPVSNGITAIWYYDYSGKRQVVIHSGDPKLVDKRFRGRAELMGNMDHKVCNLLLKDLKPEDSGTYNFRFEISDSNRWLDVKGTTVTVTGGGSGGGSGGGS
In the case of B20, the “Mean normalized OD” value in test [2] is 0 OD; in test [3] it was -0.002 OD; in test [4] it was 0 OD.

B21: Clec3b CRD-mouse IgG2a-Fc fusion protein (Fc fusion)
chain: VNLKCLLAFTQPKTFHEASEDCISQGGTLGTPQSELENEALFEYARHSVGNDANIWLGLNDMAAEGAWVDMTGGLLAYKNWETEITTQPDGGKAENCAALSGAANGKWFDKRCRDQLPYICQGGGSGGGSGGGS
Take B21: the binding result in test [1] is reported as “no binding (tested: 10 µg/ml)”. In addition, the “Mean normalized OD” value in test [2] amounted to 0 OD; in test [3], 0.001 OD; in test [4], 0.001 OD.

B22: Reg3b CRD-mouse IgG2a-Fc fusion protein (Fc fusion)
chain: YGSYCYALFQIPQTWFDAELACQKRPGGHLVSVLNSAEASFLSSMVKRTGNSYQYTWIGLHDPTLGAEPNGGGWEWSNNDVMNYFNWERNPSTALDRAFCGSLSRASGFLKWRDMTCEVKLPYVCKGGGSGGGSGGGS
On to B22, for which the “Mean normalized OD” value is 0.004 OD in test [2], -0.009 OD in test [3] and 0.005 OD in test [4].

B23: Cd69 CRD-mouse IgG2a-Fc fusion protein (Fc fusion)
chain: YKRTCYFFSTTTKSWALAQRSCSEDAATLAVIDSEKDMTFLKRYSGELEHWIGLKNEANQTWKWANGKEFNSWFNLTGSGRCVSVNHKNVTAVDCEANFHWVCSGGGSGGGSGGGS
B23: the “Mean normalized OD” value in test [2] was 0.001 OD; in test [3], -0.022 OD; in test [4], 0.001 OD.
